The values that follow come from patent publication US20130122568.

Holding throughout (test): cleavage_in_vitro
Data set [1] relates to T1, NcoI (Nocardia corallina).
T1 sequence: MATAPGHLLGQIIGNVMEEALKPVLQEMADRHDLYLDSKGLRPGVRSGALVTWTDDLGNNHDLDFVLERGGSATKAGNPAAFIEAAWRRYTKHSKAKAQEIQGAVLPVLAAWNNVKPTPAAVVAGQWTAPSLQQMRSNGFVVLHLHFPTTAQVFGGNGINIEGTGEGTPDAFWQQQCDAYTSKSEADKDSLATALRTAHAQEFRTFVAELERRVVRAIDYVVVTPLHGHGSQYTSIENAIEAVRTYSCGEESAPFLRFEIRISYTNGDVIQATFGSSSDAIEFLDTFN
Particulars: NEB1, 37 C.

Data set [2] relates to T2, SbfI (Streptomyces species Bf-61).
T2 sequence: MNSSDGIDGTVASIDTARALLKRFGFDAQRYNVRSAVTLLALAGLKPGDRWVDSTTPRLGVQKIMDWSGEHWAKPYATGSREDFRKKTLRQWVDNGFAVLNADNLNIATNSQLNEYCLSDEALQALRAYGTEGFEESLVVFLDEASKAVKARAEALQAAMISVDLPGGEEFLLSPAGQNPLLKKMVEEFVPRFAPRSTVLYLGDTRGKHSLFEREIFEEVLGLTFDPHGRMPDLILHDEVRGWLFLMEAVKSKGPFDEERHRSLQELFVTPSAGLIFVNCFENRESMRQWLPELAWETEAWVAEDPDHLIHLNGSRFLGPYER
The settings on record: NEB1, 37 C.

Data set [3] concerns T3, BspQI (Bacillus sphaericus).
T3 sequence: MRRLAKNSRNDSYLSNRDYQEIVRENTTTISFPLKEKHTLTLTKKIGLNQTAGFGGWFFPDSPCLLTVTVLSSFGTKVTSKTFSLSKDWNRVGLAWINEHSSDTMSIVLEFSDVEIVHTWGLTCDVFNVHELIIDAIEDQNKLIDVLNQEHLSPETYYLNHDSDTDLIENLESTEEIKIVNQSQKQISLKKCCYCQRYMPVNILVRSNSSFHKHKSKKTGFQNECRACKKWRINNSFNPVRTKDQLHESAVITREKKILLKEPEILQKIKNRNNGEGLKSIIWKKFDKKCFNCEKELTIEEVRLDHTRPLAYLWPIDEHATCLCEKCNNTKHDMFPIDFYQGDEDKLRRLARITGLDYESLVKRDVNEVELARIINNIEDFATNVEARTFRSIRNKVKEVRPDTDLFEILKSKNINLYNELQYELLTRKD
The settings on record: NEB3, 50 C.

Data set [4] concerns the target EcoRI (Escherichia coli RY13) (UniProt P00642). Particulars: NEB3, 37 C.
Data set [5] concerns the target T4, BamHI-HF E163A/E167T (Bacillus amyloliquefaciens) (UniProt P23940).
T4 sequence: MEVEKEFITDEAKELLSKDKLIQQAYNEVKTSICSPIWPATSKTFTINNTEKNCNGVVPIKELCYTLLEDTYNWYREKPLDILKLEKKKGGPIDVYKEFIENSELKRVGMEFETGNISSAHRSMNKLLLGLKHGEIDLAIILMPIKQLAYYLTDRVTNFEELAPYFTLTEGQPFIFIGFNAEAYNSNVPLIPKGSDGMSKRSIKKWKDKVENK
The settings on record: NEB1, 37 C.

The target in data set [6] is T5, PstI (Providencia stuartii 164) (UniProt P00640).
T5 sequence: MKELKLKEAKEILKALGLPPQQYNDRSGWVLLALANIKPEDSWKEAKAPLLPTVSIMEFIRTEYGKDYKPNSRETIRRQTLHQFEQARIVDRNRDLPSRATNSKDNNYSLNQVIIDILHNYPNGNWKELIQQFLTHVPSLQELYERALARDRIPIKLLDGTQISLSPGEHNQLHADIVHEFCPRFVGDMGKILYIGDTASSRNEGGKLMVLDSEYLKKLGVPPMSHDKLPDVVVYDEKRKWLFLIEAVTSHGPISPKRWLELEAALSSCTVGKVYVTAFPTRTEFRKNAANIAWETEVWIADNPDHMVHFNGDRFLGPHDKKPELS
Particulars: NEB3, 37 C.

The subject of data set [7] is T6, BsmBI (Bacillus stearothermophilus).
T6 sequence: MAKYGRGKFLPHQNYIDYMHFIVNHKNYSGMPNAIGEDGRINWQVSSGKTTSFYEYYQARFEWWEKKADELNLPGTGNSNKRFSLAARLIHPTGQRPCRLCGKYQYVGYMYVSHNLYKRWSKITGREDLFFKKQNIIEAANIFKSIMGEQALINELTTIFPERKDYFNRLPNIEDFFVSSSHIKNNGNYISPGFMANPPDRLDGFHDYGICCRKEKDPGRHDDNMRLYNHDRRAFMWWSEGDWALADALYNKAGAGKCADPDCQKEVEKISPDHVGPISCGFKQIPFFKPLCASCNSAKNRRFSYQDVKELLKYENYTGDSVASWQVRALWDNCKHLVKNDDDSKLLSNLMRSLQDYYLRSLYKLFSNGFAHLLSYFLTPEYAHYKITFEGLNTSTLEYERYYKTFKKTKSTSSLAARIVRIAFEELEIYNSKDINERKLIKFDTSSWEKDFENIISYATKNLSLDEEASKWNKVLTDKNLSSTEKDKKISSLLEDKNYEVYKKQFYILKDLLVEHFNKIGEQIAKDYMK
The settings on record: NEB3, 55 C.

In data set [8] the test system is T7, NcoI-HF A2T/R31A (Nocardia corallina).
T7 sequence: T1 sequence with A2T, R31A
Particulars: NEB4, 37 C.

The target in data set [9] is T8, HindIII (Haemophilus influenzae Rd) (UniProt P43870).
T8 sequence: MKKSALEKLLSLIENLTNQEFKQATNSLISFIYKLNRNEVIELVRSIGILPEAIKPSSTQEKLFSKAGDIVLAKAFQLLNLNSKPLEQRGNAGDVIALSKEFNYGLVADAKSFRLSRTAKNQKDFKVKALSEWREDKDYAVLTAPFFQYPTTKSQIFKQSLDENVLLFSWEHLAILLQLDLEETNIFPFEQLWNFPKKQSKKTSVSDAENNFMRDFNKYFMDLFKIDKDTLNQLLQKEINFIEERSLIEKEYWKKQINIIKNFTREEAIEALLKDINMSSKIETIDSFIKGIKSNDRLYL
The settings on record: NEB2, 37 C.

Substitutions are numbered along the chain they refer to.

Chain of EcoRI (Escherichia coli RY13) (P00642 whole entry): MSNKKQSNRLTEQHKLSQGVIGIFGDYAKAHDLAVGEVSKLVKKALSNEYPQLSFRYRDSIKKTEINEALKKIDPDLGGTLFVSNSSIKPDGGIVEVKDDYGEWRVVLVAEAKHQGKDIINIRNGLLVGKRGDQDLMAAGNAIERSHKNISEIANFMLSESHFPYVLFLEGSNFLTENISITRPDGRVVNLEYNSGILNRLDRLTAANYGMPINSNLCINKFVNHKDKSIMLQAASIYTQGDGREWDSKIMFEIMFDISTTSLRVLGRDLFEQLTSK

Take lambda phage DNA: the activity (fidelity index) is 120 in [1]; 32 in data set [2]; 32 in data set [3]; 250 in [4]; over 4000 in [5]; 120 in [6]. Besides, the activity (fidelity index) in data set [7] is 120; in [8], over 64000; in data set [9], 250.
